*: point of attachment. 5FAM = O=C1OC2(c3ccc(O)cc3Oc3cc(O)ccc32)c2ccc(C(=O)*)cc21
B1: H3(1-17) K9 unmodified peptide, N-terminus 5-FAM labeled (peptide, UniProt P68431 2-18, looked up)
peptide: 5FAM-ARTKQTARKSTGGKAPR-NH2
notes: Histone H3, residues 1-17, lysine 9 unmodified; Made on Rink-amide resin, so the C-terminus is probably an amide (surmised); Residues 1-17 are the same in H3.1, H3.2 and H3.3; also called H3K9un; source: synthetic peptide (solid phase synthesis on Rink-amide ChemMatrix resin, C18-HPLC-purified)
B2: H3(1-17) K9 monomethylated peptide, N-terminus 5-FAM labeled (peptide, UniProt P68431 2-18, looked up)
peptide: ARTKQTARKSTGGKAPR
modifications: 5-Carboxyfluorescein (5-FAM) on the N-terminus; monomethyl-lysine at 9
notes: Histone H3, residues 1-17, lysine 9 monomethylated; Made on Rink-amide resin, so the C-terminus is probably an amide (surmised); also called H3K9me1; source: synthetic peptide (solid phase synthesis on Rink-amide ChemMatrix resin, C18-HPLC-purified)
B3: H3(1-17) K9 dimethylated peptide, N-terminus 5-FAM labeled (peptide, UniProt P68431 2-18, looked up)
peptide: ARTKQTARKSTGGKAPR
modifications: 5-Carboxyfluorescein (5-FAM) on the N-terminus; dimethyl-lysine at 9
notes: Histone H3, residues 1-17, lysine 9 dimethylated; Made on Rink-amide resin, so the C-terminus is probably an amide (surmised); also called H3K9me2; source: synthetic peptide (solid phase synthesis on Rink-amide ChemMatrix resin, C18-HPLC-purified)

Assays:
Assay in all cases: fluorescence polarisation; enzyme titrated (0-10 uM, monomeric) against a fixed 20-100 nM of N-terminus 5-FAM labeled H3(1-17) peptide, with 100 uM SAH; 50 mM HEPES pH 7.9, 2 mM MgCl2, 0.5 mM DTT, 0.1 mM AEBSF, 0.01% Triton X-100, 10% glycerol; 10 min at 25 °C; one site specific binding fit
Conditions in all cases: both partners purified
[1] = molecular target: T1, H. sapiens EHMT1 catalytic subunit (amino acids 982 to 1266) (H. sapiens, UniProt Q9H9B1 982-1266)
T1 construct: EHMT1 (G9a-like protein, KMT1D), human, catalytic subunit, amino acids 982 to 1266; UniProt entry Q9H9B1 is printed for human EHMT1; Plasmid from Addgene (gift of Cheryl Arrowsmith); The tag is surmised from the nickel column purification; also called G9a-like protein; GLP; source: Rosetta E. coli, purified (HisTrap FF nickel column, dialysis)
T1 sequence (looked up): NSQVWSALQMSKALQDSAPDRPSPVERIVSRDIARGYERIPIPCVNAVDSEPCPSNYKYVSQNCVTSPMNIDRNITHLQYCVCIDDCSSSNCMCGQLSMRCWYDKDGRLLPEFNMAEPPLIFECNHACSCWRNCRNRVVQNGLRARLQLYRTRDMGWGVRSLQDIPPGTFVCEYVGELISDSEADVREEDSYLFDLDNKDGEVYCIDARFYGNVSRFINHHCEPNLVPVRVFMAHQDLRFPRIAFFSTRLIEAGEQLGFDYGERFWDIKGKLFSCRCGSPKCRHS

[2] = molecular target: T2, SUV39H1, full length with N-terminal maltose-binding protein (UniProt O43463 1-412)
T2 construct: SUV39H1 (KMT1A), full length; Plasmid generated for this study; The His tag is surmised from the nickel column purification; also called KMT1A; source: Rosetta E. coli, purified (HisTrap FF nickel column, dialysis)
T2 sequence (looked up): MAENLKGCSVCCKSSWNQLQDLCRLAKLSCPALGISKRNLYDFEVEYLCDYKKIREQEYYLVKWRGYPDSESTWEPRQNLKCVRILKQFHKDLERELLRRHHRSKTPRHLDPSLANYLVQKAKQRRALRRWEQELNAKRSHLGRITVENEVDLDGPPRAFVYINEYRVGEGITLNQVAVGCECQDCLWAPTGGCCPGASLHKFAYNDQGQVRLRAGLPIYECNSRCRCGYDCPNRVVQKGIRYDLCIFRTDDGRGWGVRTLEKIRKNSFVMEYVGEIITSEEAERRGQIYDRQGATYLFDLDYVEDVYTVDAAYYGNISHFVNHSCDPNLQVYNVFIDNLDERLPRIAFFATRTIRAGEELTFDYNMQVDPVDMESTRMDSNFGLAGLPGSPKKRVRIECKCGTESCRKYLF

[3] = molecular target: T3, H. sapiens EHMT2 catalytic subunit (amino acids 913 to 1193) (H. sapiens, UniProt Q96KQ7 913-1193)
T3 construct: EHMT2 (G9a, KMT1C), human, catalytic subunit, amino acids 913 to 1193; Plasmid provided by the laboratory of Peter W. Lewis; The tag is surmised from the nickel column purification; also called G9a; KMT1C; source: Rosetta E. coli, purified (HisTrap FF nickel column, dialysis)
T3 sequence (looked up): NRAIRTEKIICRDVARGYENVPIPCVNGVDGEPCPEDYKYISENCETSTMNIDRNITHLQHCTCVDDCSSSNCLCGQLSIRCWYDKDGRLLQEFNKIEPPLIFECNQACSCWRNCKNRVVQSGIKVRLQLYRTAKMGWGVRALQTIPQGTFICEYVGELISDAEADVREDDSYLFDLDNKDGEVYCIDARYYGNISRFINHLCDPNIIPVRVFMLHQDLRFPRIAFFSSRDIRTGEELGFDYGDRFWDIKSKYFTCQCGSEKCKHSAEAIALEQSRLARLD

[4] = molecular target: T4, H. sapiens SUV39H2 catalytic subunit (amino acids 162 to 410) (H. sapiens, UniProt Q9H5I1 162-410)
T4 construct: Plasmid from Addgene (gift of Cheryl Arrowsmith); The tag is surmised from the nickel column purification; also called KMT1B; source: Rosetta E. coli, purified (HisTrap FF nickel column, dialysis)
T4 sequence (Q9H5I1 162-410): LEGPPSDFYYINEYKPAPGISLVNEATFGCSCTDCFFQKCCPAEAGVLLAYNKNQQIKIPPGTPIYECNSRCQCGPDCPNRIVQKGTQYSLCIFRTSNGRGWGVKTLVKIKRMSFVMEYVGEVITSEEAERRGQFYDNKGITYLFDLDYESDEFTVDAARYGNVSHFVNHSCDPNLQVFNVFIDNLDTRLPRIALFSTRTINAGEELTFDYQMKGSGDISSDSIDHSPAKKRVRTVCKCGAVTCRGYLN

Row | Binder | Kd [1] [nM] | Kd [2] [nM] | Kd [3] [nM] | Kd [4] [nM]
1 | B1 | 29 ± 1 | 499 ± 45 | 16 ± 0.4 | 1080 ± 226
2 | B2 | 74 ± 10 | 750 ± 47 | 26 ± 1 | 694 ± 98
3 | B3 | 124 ± 24 | 479 ± 123 | 40 ± 3 | 929 ± 573

Reference: paper PMC10404681, “Intrinsic catalytic properties of histone H3 lysine-9 methyltransferases preserve monomethylation levels under low S-adenosylmethionine” (The Journal of Biological Chemistry, 2023)
